According to patent US20220251222A1, “IL-6Ralpha/IL-8R BISPECIFIC BINDING AGENTS FOR INHIBITING CANCER CELL MIGRATION” (The Johns Hopkins University, priority 2019, published 2022):

Tests used:
IL-6Rα = biological target: T1, IL-6Rα (Homo sapiens, UniProt P08887); assay: Cell surface binding on IL-6Rα+/IL-8R− HEK 293T cells (flow cytometry); settings: 2 hr at 4° C.
T1 construct: expressed in transfected cells; host or cells: HEK 293T, lentiviral transduction (pCDH backbone)
T1 sequence (P08887 20-468): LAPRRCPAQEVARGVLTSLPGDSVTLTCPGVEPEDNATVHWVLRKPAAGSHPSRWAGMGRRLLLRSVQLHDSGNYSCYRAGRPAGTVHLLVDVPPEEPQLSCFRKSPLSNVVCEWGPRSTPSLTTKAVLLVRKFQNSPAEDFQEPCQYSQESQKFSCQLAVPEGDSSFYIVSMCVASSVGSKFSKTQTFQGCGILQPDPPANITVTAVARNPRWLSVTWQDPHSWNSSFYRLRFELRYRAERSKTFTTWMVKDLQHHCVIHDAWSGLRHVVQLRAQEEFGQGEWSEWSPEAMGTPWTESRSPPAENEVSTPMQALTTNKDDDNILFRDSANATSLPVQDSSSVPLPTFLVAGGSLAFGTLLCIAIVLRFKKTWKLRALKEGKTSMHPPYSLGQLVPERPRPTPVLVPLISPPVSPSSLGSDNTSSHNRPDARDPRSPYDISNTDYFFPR
Description: GeneJuice (Sigma Aldrich) was used as the transfection reagent.
Mean fluorescence intensity (MFI) of unstimulated cells was subtracted.

IL-8 binding to IL-8R = biological target: T2, IL-8 binding to IL-8R (Homo sapiens, UniProt P25025); assay: IL-8 cell surface binding inhibition on IL-6Rα−/IL-8R+ HEK 293T cells; settings: His-tagged IL-8 400 nM
T2 construct: expressed in transfected cells; host or cells: HEK 293T, lentiviral transduction (IL-6Rα−/IL-8R+)
T2 sequence (P25025 1-360): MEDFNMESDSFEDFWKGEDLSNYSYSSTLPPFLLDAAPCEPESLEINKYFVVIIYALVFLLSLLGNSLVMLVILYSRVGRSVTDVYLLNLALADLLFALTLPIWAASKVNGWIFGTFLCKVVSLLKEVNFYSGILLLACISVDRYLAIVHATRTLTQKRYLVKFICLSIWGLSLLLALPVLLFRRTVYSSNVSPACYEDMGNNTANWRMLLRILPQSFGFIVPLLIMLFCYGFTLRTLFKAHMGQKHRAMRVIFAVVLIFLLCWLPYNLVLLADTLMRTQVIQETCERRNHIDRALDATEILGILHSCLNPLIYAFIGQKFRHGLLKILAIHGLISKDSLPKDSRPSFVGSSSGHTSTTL
Experimental: Cells were then washed and incubated with 1:200 dilution of Alexa Fluor 647-conjugated streptavidin (Fisher Scientific, cat #: S21374) in PBSA for 15 min at 4° C. […] Curves were fitted to a first-order logistic model and IC50 values were calculated using GraphPad Prism data analysis software. Mean fluorescence intensity (MFI) of unstimulated cells was subtracted. […]

- KD, binding to IL-6Rα on cells (IL-6Rα): only recognized IL-6Rα^+ cells
- IC50, competition with IL-8 binding to IL-8R (IL-8 binding to IL-8R): did not exert any inhibitory effects
Substance: tocilizumab
